Molecular target: tyrosine phosphorylated ^32 P-labelled RCM-lysozyme (Gallus gallus (Chicken)) (UniProt P00698)

specific activity with tyrosine phosphorylated RCM-Lysozyme as substrate (fold lower than the wild type enzyme): 10000
Substance: full length PTP-PEST D199A (from UniProt Q05209) (enzyme)

Source: patent US5951979
